Assay [1] concerns the target T1, human alpha CGRP (SEQ ID NO: 80) (human, not fully specified).
T1 peptide: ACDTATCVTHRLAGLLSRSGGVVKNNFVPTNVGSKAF
Description: cell-based or functional assay.

Assay [2] has as its target T2, human beta CGRP (SEQ ID NO: 81) (human, not fully specified).
T2 peptide: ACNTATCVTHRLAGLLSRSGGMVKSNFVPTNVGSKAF
Description: cell-based or functional assay.

Assay [3] addresses T3, rat alpha CGRP (SEQ ID NO: 82) (rat).
T3 peptide: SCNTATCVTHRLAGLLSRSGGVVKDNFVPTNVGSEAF
Description: cell-based or functional assay.

In assay [4] the target is T4, rat beta CGRP (SEQ ID NO: 83) (rat, not fully specified).
T4 peptide: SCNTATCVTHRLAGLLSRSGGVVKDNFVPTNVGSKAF
Nature of the assay: cell-based or functional assay.

Assay [5] has as its target T1, human alpha CGRP (SEQ ID NO: 80). Description: SPR, 37 C, mutein captured, CGRP analyte. Here is the method: (§1) The Biotin CAPture Kit (GE Healthcare) was used to immobilize biotinylated lipocalin muteins to a chip surface. Muteins were biotinylated using standard NHS chemistry. Undiluted Biotin CAPture Reagent (streptavidin conjugated with ss-DNA oligo) was captured on a Sensor Chip CAP with the pre-immobilized complementary ss-DNA oligo. Thereafter, biotinylated muteins at 1 μg/mL were applied for 300 s at a flow rate of 5 μL/min.
(§2) CGRP species were applied in three concentrations of 30 nM, 3 nM and 0.3 nM at a flow rate of 30 μL/min or in a single concentration of 25 nM per cycle as shown in FIG. 2. The dilutions were injected with association times of 180 s and dissociation times of 5400 sec to obtain ka and kd information. Regeneration of the chip surface was achieved by injecting 6 M Guanidinium-HCl+0.25 M NaOH (120 s) with a flow rate of 10 μL/min. Injection of regeneration solutions was followed by an extra wash step with HBS-EP+(1×; BR-1006-69; GE Healthcare) running buffer and a stabilization period of 120 s.
(§3) The data were double-referenced by subtraction of the corresponding signals measured for the control channel (loaded with Biotin CAPture reagent only) and by subtraction of buffer injections from the binding responses. Association rate constant ka and dissociation rate constant kd for the binding reaction were determined using Biacore T200 Evaluation Software V2.0 for data processing and kinetic fitting. The data were globally fit with 1:1 binding model.

Assay [6] addresses T2, human beta CGRP (SEQ ID NO: 81). Nature of the assay: SPR, 37 C, mutein captured, CGRP analyte. The protocol: as §1, §2, §3
Background: Surface plasmon resonance follows binding to a sensor surface in real time, without labels.

Assay [7] concerns the target T3, rat alpha CGRP (SEQ ID NO: 82). Nature of the assay: SPR, 37 C, mutein captured, CGRP analyte. The protocol:
as §1, §2, §3

The target in assay [8] is T4, rat beta CGRP (SEQ ID NO: 83). Nature of the assay: SPR, 37 C, mutein captured, CGRP analyte. The protocol:
as §1, §2, §3

The target of assay [9] is T1, human alpha CGRP (SEQ ID NO: 80). Description: SPR as in Example 5. The protocol: as §1, §2
For assay [10], the target named is T2, human beta CGRP (SEQ ID NO: 81). Nature of the assay: SPR as in Example 5. Here is the method:
as §1, §2

The target of assay [11] is T1, human alpha CGRP (SEQ ID NO: 80). Description: cell-based or functional assay.
Assay [12] deals with T2, human beta CGRP (SEQ ID NO: 81). Nature of the assay: cell-based or functional assay.

B1: lipocalin mutein SEQ ID NO: 25 (designed binder)
chain: QDSTSDLIPAPPLSKVPLQQNFQDNQFHGKWYVVGWAGNTLLREDKDPIKMQAKIYELKEDRSYNVTWVYFADKKCNYHIETFVPGSQPGEFTLGTIKSYPGETPILVRVVSTNYNQHAMVFFKGVNQNREIFEIILYGRTKELTNELKENFIRFSKSLGLPENHIVFPVPIDQCIDGSAWSHPQFEK
notes: biotinylated by NHS chemistry for capture in SPR
As to B1, the entries for the “IC50, CGRP-induced cAMP production, SK-N-MC cells” value in assay [1] and in assay [2] were 150 pM and 190 pM, respectively. The “IC50, CGRP-induced cAMP production, L6 cells” value (from here on “IC50 … L6 cells”) turned out to be 60 pM in assay [3] and 160 pM in assay [4]. Moreover, the Kd (in general, a measure of binding affinity in units of concentration) was 6 pM in [5], 5 pM in assay [6], 16 pM in assay [7] and 8 pM in assay [8]. Also, the koff (as a rule, the rate constant with which the complex falls apart) in assay [5] amounted to 1.65e-05 s⁻¹; in [6] it was 1.01e-05 s⁻¹; in [7], 2.12e-05 s⁻¹; in assay [8], 1.33e-05 s⁻¹. The kon (commonly the second-order rate constant of association) in assay [5] is 2.68e+06 M⁻¹ s⁻¹; in assay [6], 2.02e+06 M⁻¹ s⁻¹; in assay [7], 1.3e+06 M⁻¹ s⁻¹; in assay [8], 1.64e+06 M⁻¹ s⁻¹.

B2: lipocalin mutein SEQ ID NO: 27 (designed binder)
chain: QDSTSDLIPAPPLSKVPLQQNFQDNQFHGKWYVVGWAGNTLLREDKDPIKMQAMIYELKEDKSYNVTWVYFADKKCNYHIETFVPGSQPGEFTLGTIKSYPGETPILVRVVSTNYNQHAMVFFKGVNQNREIFEIVLYGRTKELTNELKENFIRFSKSLGLPENHIVFPVPIDQCIDGSAWSHPQFEK
notes: as for B1
Consider B2, for which the Kd in [9] was found to be 38 pM; in [10] it was 7 pM; in assay [5] it was 18 pM; in assay [6] it was 11 pM; in assay [7] it was 38 pM; in assay [8], 18 pM. The figures for the “IC50, CGRP-induced cAMP production, SK-N-MC cells” value in assay [1] and in assay [2] were 100 pM and 120 pM, respectively. The “cAMP assay IC50, SK-N-MC cells” value in assay [11] was found to be 100 pM; in [12], 120 pM. For the same molecule, the koff was determined as 2.59e-05 s⁻¹ in assay [5], 2.26e-05 s⁻¹ in assay [6], 3.1e-05 s⁻¹ in assay [7] and 2.64e-05 s⁻¹ in assay [8]. In addition, the kon in assay [5] came out at 1.43e+06 M⁻¹ s⁻¹; in assay [6], 2.04e+06 M⁻¹ s⁻¹; in assay [7], 807000 M⁻¹ s⁻¹; in assay [8], 1.5e+06 M⁻¹ s⁻¹.

B3: lipocalin mutein SEQ ID NO: 24 (designed binder)
chain: QDSTSDLIPAPPLSKVPLQQNFQDNQFHGKWYVVGWAGNTLLREDKDPIKMQAKIYELKEDRSYNVTWVYFAEKKCNYHIETFVPGSQPGEFTLGTIKSYPGETPILVRVVSTNYNQHAMVFFKGVNQNREIFEIILYGRTKELTNELKENFIRFSKSLGLPENHIVFPVPIDQCIDGSAWSHPQFEK
notes: as for B1
As for B3, the “IC50, CGRP-induced cAMP production, SK-N-MC cells” value in assay [1] is 120 pM; in assay [2], 190 pM. The entries for the “IC50 … L6 cells” value in assay [3] and in [4] were 70 pM and 160 pM, respectively. For the same molecule, the Kd in assay [5] worked out at 9 pM; in [6] it was 4 pM; in [7], 15 pM; in [8] it was 7 pM. For the same molecule, the koff was 1.4e-05 s⁻¹ in assay [5], 9.01e-06 s⁻¹ in assay [6], 2.08e-05 s⁻¹ in assay [7] and 1.22e-05 s⁻¹ in assay [8]. Also, the kon in assay [5] worked out at 1.6e+06 M⁻¹ s⁻¹; in [6], 2.52e+06 M⁻¹ s⁻¹; in [7] it was 1.43e+06 M⁻¹ s⁻¹; in assay [8], 1.69e+06 M⁻¹ s⁻¹.

B4: lipocalin mutein SEQ ID NO: 23 (designed binder)
chain: QDSTSDLIPAPPLSKVPLQQNFQDNQFHGKWYVVGWAGNTLLREDKDPIKMQAKIYELKEDRSYNVTWVYFADKKCNYHIETFVPGSQPGEFTLGLIKSYPGETPILVRVVSTNYNQHAMVFFKGVNQNREIFEIILYGRTKELTNELKENFIRFSKSLGLPENHIVFPVPIDQCIDGSAWSHPQFEK
notes: as for B1
With B4, the figures for the “IC50, CGRP-induced cAMP production, SK-N-MC cells” value in assay [1] and in assay [2] were 180 pM and 200 pM, respectively. The “IC50 … L6 cells” value in assay [3] is 70 pM; in assay [4], 170 pM. In addition, the Kd in [5] was determined as 11 pM; in assay [6] it was 1 pM; in assay [7] it was 9 pM; in [8], 8 pM. The koff in [5] came out at 1.84e-05 s⁻¹; in [6] it was 4.11e-06 s⁻¹; in assay [7], 1.3e-05 s⁻¹; in [8], 1.34e-05 s⁻¹. For the same molecule, the kon in assay [5] came to 1.64e+06 M⁻¹ s⁻¹; in [6], 2.84e+06 M⁻¹ s⁻¹; in assay [7], 1.39e+06 M⁻¹ s⁻¹; in assay [8], 1.74e+06 M⁻¹ s⁻¹.

B5: lipocalin mutein SEQ ID NO: 26 (designed binder)
chain: QDSTSDLIPAPPLSKVPLQQNFQDNQFHGKWYVVGWAGNTLLREDKDPIKMQAKIYELKEDRSYNVTWVYFADKKCRYHIETFVPGSQPGEFTLGTIKSHPGETPILVRVVSTNYNQHAMVFFKGVNQNREIFEIILYGRTKELTNELKENFIRFSKSLGLPENHIVFPVPIDQCIDGSAWSHPQFEK
notes: as for B1
As to B5, the entries for the “IC50, CGRP-induced cAMP production, SK-N-MC cells” value in [1] and in [2] were 160 pM and 260 pM, respectively. The “IC50 … L6 cells” value in [3] is 50 pM; in assay [4], 160 pM. For the same molecule, the Kd in [5] worked out at 13 pM; in assay [6], 3 pM; in assay [7] it was 15 pM; in assay [8], 6 pM. Further, the koff was determined as 1.99e-05 s⁻¹ in assay [5], 7.6e-06 s⁻¹ in assay [6], 2.01e-05 s⁻¹ in assay [7] and 9.98e-06 s⁻¹ in [8]. For the same molecule, the association rate constant (kon) amounted to 1.5e+06 M⁻¹ s⁻¹ in assay [5], 2.44e+06 M⁻¹ s⁻¹ in assay [6], 1.31e+06 M⁻¹ s⁻¹ in assay [7] and 1.56e+06 M⁻¹ s⁻¹ in assay [8].

B6: lipocalin mutein SEQ ID NO: 19 (designed binder)
chain: QDSTSDLIPAPPLSKVPLQQNFQDNQFHGKWYVVGRAGNDTLREDKDPEKMEATIYELKEDKSYNVTDVGLVQKKCMYVIHTFVPGSQPGEFTLGNIKSYPGVTSALVRVVSTNYNQHAMVFVKLVKQSRELFEITLYGRTKELTSELKENFIRFSKSLGLPENHIVFPVPIDQCIDGSAWSHPQFEK
notes: as for B1
For B6, the entries for the “IC50, CGRP-induced cAMP production, SK-N-MC cells” value in assay [1] and in assay [2] were 140 pM and 210 pM, respectively. Also, the “IC50 … L6 cells” value in [3] was determined as 70 pM; in [4], 170 pM. Besides, the dissociation constant Kd in assay [5] was determined as 5 pM; in assay [6], 1 pM; in assay [7], 24 pM; in [8], 6 pM. Also, the koff in assay [5] came to 1.07e-05 s⁻¹; in assay [6] it was 6.67e-06 s⁻¹; in assay [7], 3.02e-05 s⁻¹; in [8] it was 1.21e-05 s⁻¹. Further, the kon in assay [5] turned out to be 2.26e+06 M⁻¹ s⁻¹; in assay [6], 4.56e+06 M⁻¹ s⁻¹; in [7], 1.25e+06 M⁻¹ s⁻¹; in assay [8], 2.01e+06 M⁻¹ s⁻¹.

B7: lipocalin mutein SEQ ID NO: 18 (designed binder)
chain: QDSTSDLIPAPPLSKVPLQQNFQDNQFHGKWYVVGRAANDVLRDDNDPEKMEATIYELKEDKSYNVTDVGFVQKKCMYVVHTFVPGSQPGEFTLGNIKSYPGVTSALVRVVSTNYNQHAMVFFKLVKQNRELFEVTLYGRTKELTSELKENFIRFSKSLGLPENHIVFPVPIDQCIDGSAWSHPQFEK
With B7, the entries for the “IC50, CGRP-induced cAMP production, SK-N-MC cells” value in assay [1] and in [2] were 190 pM and 290 pM, respectively. Moreover, the “IC50 … L6 cells” value in assay [3] amounted to 60 pM; in assay [4], 140 pM.

The values above are taken from patent US20190338002A1 (Pieris, published 2019).
